{"source": "the nanobody polyreactivity screen of Harvey et al. (2022)", "data": [{"experiment": "yeast display, Sf9 membrane polyspecificity reagent, FACS + sequencing; frameworks hold sequencing errors", "method_in_brief": "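A nanobody's polyreactivity label depends on the gate it was sorted from. Yeast display cells were stained with 10% biotinylated, detergent-solubilized Sf9 membrane reagent for 1 hour at 4 °C, enriched on streptavidin microbeads and sorted by FACS. The low and high (top ~1%) gates were set on anti-HA fluorescence for expression and streptavidin fluorescence for reagent binding.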", "values": [{"sequence": "QVQLVESGGGLVQAGGSLRLSCAASGPTFHGYDMGWNRQAPGKERELVARINWSDGRTYYADSVKGRFTISRDNAKNTVYLQMISLKPEDTAVYYCAADKTGSYAPAWYYYWGQGTQVTVSS", "polyreactivity (PSR sort gate)": "low polyreactivity"}, {"sequence": "QVQLVESGGGLVQAGGSLRLSCAASGPTFRANAMGWYRQAPGKEREMVAAISQRGGNTYYADSVKGRFTISRDKAKNTVYLQMNSLKPEDTAVYYCSADITTYRRGRYEYEYWGQGTQVTVSS", "polyreactivity (PSR sort gate)": "high polyreactivity"}, {"sequence": "QVQLVESGGGLVQAGGSLRLSCAASGPTFTYNAMGWYRQAPGKERELVATINSVDSTYADSVKGRFTISRDNAKNTVYLQMNSMKPEDTAVYYCNAGFPLSLWLGDYWGQGTQVTVSS", "polyreactivity (PSR sort gate)": "low polyreactivity"}, {"sequence": "QVQLVESGGGLVQAGGSLRLSCAASGPTFYLYDTMGWYRQAPGKERELVAAISWDDGDTYYADSVKGRFTISRDNAKTTVYLQMNSLKPEDTAVYYCAAEYLSGAHGYWGQGTHVTVSS", "polyreactivity (PSR sort gate)": "low polyreactivity"}, {"sequence": "QVQLVESGGGLVQAGGSLRLSCAASGPTFYYYAMGWYRQAPGKERELVAAITWSGGSTYYADSVKGRFTISRDNAKNTVYLQMNSLKPEDTAVYYCAADVTYSRYEYWGQGTQVTVSS", "polyreactivity (PSR sort gate)": "low polyreactivity"}, {"sequence": "QVQLVESGGGLVQAGGSLRLSCAASGQTFDWYAMGWYRQAPGKERELVAAITSVGSTYYADSVKGRFTISRDNAKNSVYLQMNSLKPEDTAVYYCAVEGVIWSFWPYEYWGQGTQVTVSS", "polyreactivity (PSR sort gate)": "high polyreactivity"}, {"sequence": "QVQLVESGGGLVQAGGSLRLSCAASGQTFYYYAMGWYRQAPGKERELVAAINSSGGITFYADSVKGRFTISRDNAKNTVYLQMNSLKPEDTAVYYCAAGGRSKRYVYWGQGTQVTVSS", "polyreactivity (PSR sort gate)": "low polyreactivity"}, {"sequence": "QVQLVESGGGLVQAGGSLRLSCAASGRICTRYMGWYRQAPGKERELVATINWSGGSTYYADSVKGRFTISRDNAKNTVYLQMNSLKPEDTAVYYGNARNVDFYYVQYNGAKIFDYWGQGTQVTVSS", "polyreactivity (PSR sort gate)": "low polyreactivity"}, {"sequence": "QVQLVESGGGLVQAGGSLRLSCAASGRICVINAMGWYRQAPGKERELVATIDRGGSTNYADSVKGRFSISRDNAKNTVYLQMNSLKPEDTAVYYCAAGVVGKRSRTGYYWGQGTQVTVSS", "polyreactivity (PSR sort gate)": "low polyreactivity"}, {"sequence": "QVQLVESGGGLVQAGGSLRLSCAASGRIFAANVMGWYRQAPWKERELVAAISWNGGSTYYADSVKGRFTISRDNAKNTVYLQMNSLKPEDTAVYYCAVRGSYRGWYDYWGQGTQVTVSS", "polyreactivity (PSR sort gate)": "high polyreactivity"}, {"sequence": "QVQLVESGGGLVQAGGSLRLSCAASGRIFADNAMGWYRQAPGKERELVADITYSGGSTYYADSVKGRFTISRDSAKNTVYLQMNSLKPEDTAVYYCAKQGVDYWGQGTQVTVSS", "polyreactivity (PSR sort gate)": "low polyreactivity"}, {"sequence": "QVQLVESGGGLVQAGGSLRLSCAASGRIFADYAMGWYRQAPGKERELVAAISWRGGSRYYADSVKGRFTSSRDNAKNTVYLQMNSLKPEDTAVYYCNKASPADYDYWGQGTQVTVSS", "polyreactivity (PSR sort gate)": "low polyreactivity"}, {"sequence": "QVQLVESGGGLVQAGGSLRLSCAASGRIFAFYAMGWYRQAPGKEREFVAAITYSGGNTNYADSVKGRFTISRDNAKNTVYLQMNSLKPEDTAVYYCAAALVYGVYYQEDYWGQGTQVTVSS", "polyreactivity (PSR sort gate)": "low polyreactivity"}, {"sequence": "QVQLVESGGGLVQAGGSLRLSCAASGRIFAGYAMGWYRQAPGKERELVASIRSSGSTYYADSVKGRFTISRDNAKNTVYLQMNSLKPEDTAVYYCNKYVPYRHLWDYGYWGQGTQVTVSS", "polyreactivity (PSR sort gate)": "high polyreactivity"}, {"sequence": "QVQLVESGGGLVQAGGSLRLSCAASGRIFAGYGMGWYRQAPGKERELVAAISSGGSTYYADSVKGRFTISRDNAKNTVYLQMTSLKPEDTAVYDCATDGQSVPDDYYQNVDYDYWGQGTQVAVSS", "polyreactivity (PSR sort gate)": "low polyreactivity"}, {"sequence": "QVQLVESGGGLVQAGGSLRLSCAASGRIFAGYTMGWYRQAPGKERELVAAISWSGGRTYYADSVKGRFTISRDNAKYTVYLQMNSLKPEDTAVYYCNKVGWYHNYYYWGQGTQVTVSS", "polyreactivity (PSR sort gate)": "high polyreactivity"}, {"sequence": "QVQLVESGGGLVQAGGSLRLSCAASGRIFAGYVMGWYRQAPGKERELVAAISGSGASTYYADSVKGRFTISRDNAKNTVFLQMNSLKPEDTAVYYCAADKPGIVSRFDYWGQGTQVTVSS", "polyreactivity (PSR sort gate)": "low polyreactivity"}, {"sequence": "QVQLVESGGGLVQAGGSLRLSCAASGRIFAHYAMGWYRPAPGKERELVAAISSGGSTYYADSVKGRFTISRDNAKNTVYLQMKSLKPEDTAVYYCNKRPVRRKYDYWGQGTQVTVSS", "polyreactivity (PSR sort gate)": "low polyreactivity"}, {"sequence": "QVQLVESGGGLVQAGGSLRLSCAASGRIFAKNTMGWYRQAPGKERELVAAISRSGGRTYYADSVKGRFTISRDNAKNTVYLQMNSLKPEDTAVYYCSKDVKGSYAYDSWGQGTQVTVSS", "polyreactivity (PSR sort gate)": "high polyreactivity"}, {"sequence": "QVQLVESGGGLVQAGGSLRLSCAASGRIFALYTMGWYIQAPGKERELVAAITTSGGSTYADSVKGRFTISRDNAKNTVYLQMNSLKPEDTAVYYCNAQGYEGLGEFDYWGQGTQLTVSS", "polyreactivity (PSR sort gate)": "low polyreactivity"}, {"sequence": "QVQLVESGGGLVQAGGSLRLSCAASGRIFANNAMGWYRQAPGKEREFVAAINYSGTSTYYADSVKGRFTISRDNAKNTVYLQMNSLKPEDTAVYYCAADLPYYPYLYDYWGQGTQVTVSS", "polyreactivity (PSR sort gate)": "low polyreactivity"}, {"sequence": "QVQLVESGGGLVQAGGSLRLSCAASGRIFAPYAMGWYRQAPGKERELVAAISWRVGSTYYADSVKVRFTISRDYAKNTVYLQMNSLKPDDTAVYYCAARPSYRYDYLGQGTQVTVSS", "polyreactivity (PSR sort gate)": "high polyreactivity"}, {"sequence": "QVQLVESGGGLVQAGGSLRLSCAASGRIFAQYAMGWYRQAPGKERELVAGIDRRGGSTYYADSVKGRFTISRDNAKNTVYLQMNILKPEDTAVYYCAAYGTTGVYRGPGYDYWGQGTQVTVSS", "polyreactivity (PSR sort gate)": "low polyreactivity"}, {"sequence": "QVQLVESGGGLVQAGGSLRLSCAASGRIFAQYAMGWYRQAPVKERELVAGIDRRGGSTYYADSVKGRFTISRDNAKNTVYLQMNSLKPEDTAVYYCAAYGTTGVYRGPGYDYWGQATQVTVSS", "polyreactivity (PSR sort gate)": "low polyreactivity"}, {"sequence": "QVQLVESGGGLVQAGGSLRLSCAASGRIFARNTMGWYRQAPGKERELVAAISWGGGRTYYADSVKGRFTISRDNAKNTVYLQMNSLKPEDTAVFYCAAETLQIPRGEYWGQGTQVTVSS", "polyreactivity (PSR sort gate)": "low polyreactivity"}, {"sequence": "QVQLVESGGGLVQAGGSLRLSCAASGRIFARYAMGWYRQAPGKERELVAAISRGGSTKYADSVKGRFTISRDNAKNTVYLQMNSLKPEDTAVYYCARQLWGSPYGAYYAGDYWGQGTQVTVSS", "polyreactivity (PSR sort gate)": "low polyreactivity"}, {"sequence": "QVQLVESGGGLVQAGGSLRLSCAASGRIFARYAMGWYRQAPGKERELVAAITKSVGSTYYADSVKGRFTNSRDNAKNTVYLQMNSLKPEDTAVYYCNAVARGYGYDYWGQGTQVTVSS", "polyreactivity (PSR sort gate)": "high polyreactivity"}, {"sequence": "QVQLVESGGGLVQAGGSLRLSCAASGRIFARYAMGWYRQAPWKERELVADITTGGSTDYADSVKGRFTISRDNAKNTVYLQMNSLKPEDTAVYYCAKDHHPPGKGQSVSLGYDYWGQGTQVTVSS", "polyreactivity (PSR sort gate)": "low polyreactivity"}, {"sequence": "QVQLVESGGGLVQAGGSLRLSCAASGRIFARYAMRMYRQAPEKERELVDYINSGDNTYYADSVKWRFTISRDNAKNTVYLQMNSLKPDATAVYYCAAVVGRRQSSSSRFEYDYWGQGTQVTVSS", "polyreactivity (PSR sort gate)": "low polyreactivity"}, {"sequence": "QVQLVESGGGLVQAGGSLRLSCAASGRIFASNAMGWYRQAPGKERELVAAIDQGGGSSYYADSVKGRFTISRDNAKNTVYLLMNSLKPEDTAVYYCAADYITAYPRLYNYWGQGTQVTVSS", "polyreactivity (PSR sort gate)": "low polyreactivity"}, {"sequence": "QVQLVESGGGLVQAGGSLRLSCAASGRIFAVNAMGWYRQAPGKERELVAAISWSGGITRYADSVKGRFTISRDNAKNTVYLQMNSLKPEDTAVYYCNASQWPSRFDYWGQGTQVTVSS", "polyreactivity (PSR sort gate)": "low polyreactivity"}, {"sequence": "QVQLVESGGGLVQAGGSLRLSCAASGRIFAVYAMGWYRQAPGKEREFVAAISYSGGITYYADSVKGRFTISRDNAKNTVYLQMNSLKPEDTAVYYCNAYYYFWGQGTQVTVSS", "polyreactivity (PSR sort gate)": "low polyreactivity"}, {"sequence": "QVQLVESGGGLVQAGGSLRLSCAASGRIFAVYAMGWYRQAPGKERELVAAINNGASTNYADSVKGRFTISRDNAKNTVYLQMNSLKPEDTAVYYCAAYGYWGQGTQVTVSS", "polyreactivity (PSR sort gate)": "high polyreactivity"}, {"sequence": "QVQLVESGGGLVQAGGSLRLSCAASGRIFAVYAMGWYRQAPGKERELVAAIRWSGVRTYYADSVKGRFTISRDNAKNTVYLQMNSLKPEDTAVYYCAAEYSGQYYSPVSFLYDYWGQGTQVTVSS", "polyreactivity (PSR sort gate)": "high polyreactivity"}, {"sequence": "QVQLVESGGGLVQAGGSLRLSCAASGRIFAWNAMGCYRQAPGKERELVAGISGSGGSTYYADSVKGRFTISRDNAKNTVYFQMNSLKPEDTAVYYCAARRRYDGWGGYWGQGTQVTVSS", "polyreactivity (PSR sort gate)": "high polyreactivity"}, {"sequence": "QVQLVESGGGLVQAGGSLRLSCAASGRIFAWNAMGWYRQAPGTERELVARIRVSGGRTYYADSVKGRFTISRDNAKNTVYLQMNSLKPEDTAVDYCNAYLRSGSMDYWGQGTQVTVSS", "polyreactivity (PSR sort gate)": "high polyreactivity"}, {"sequence": "QVQLVESGGGLVQAGGSLRLSCAASGRIFAWYAMGWYRQAPGKERELVAAISDSGRSTYYADSVKGRFTISRDNAKNTVYLQMNSLKPEDNAVYYCAADQVVYSAYWCDHYDYWGQGTQVTVSS", "polyreactivity (PSR sort gate)": "low polyreactivity"}, {"sequence": "QVQLVESGGGLVQAGGSLRLSCAASGRIFAYNAMGWSRQAPGKERELVAAITWSGGTTYYADSVKGRFTISRDNAKNTVYLQMNSLKPEDTAVYYCAASRRYGGYRFDYWGQGTQVTVSS", "polyreactivity (PSR sort gate)": "high polyreactivity"}, {"sequence": "QVQLVESGGGLVQAGGSLRLSCAASGRIFAYNAMGWYRQAPGKERELVAAISSSDDDTYYADSVKGRFTISRDNAKNTVYLQMNSLKPEDTAAYYCAAEWDTDRLWAGPRGSLYDYWGQGTQVTVSS", "polyreactivity (PSR sort gate)": "high polyreactivity"}, {"sequence": "QVQLVESGGGLVQAGGSLRLSCAASGRIFAYNARGWYRQAPGKERELVADISSGGNTYYADSVKGRFTISRDNAKNTVYLQMNSLKPEDTAVYYCAADIAWYTHYHRIFDYWGQGTQVTVSS", "polyreactivity (PSR sort gate)": "low polyreactivity"}, {"sequence": "QVQLVESGGGLVQAGGSLRLSCAASGRIFAYNTMGWYRQAPGKERELVAVITSGGSTNYADSVKGRFTISRDNAKNTVYLQMNSLKPEDTAVYYCNADPRLRQTRDYWGQGTQVTVSS", "polyreactivity (PSR sort gate)": "high polyreactivity"}, {"sequence": "QVQLVESGGGLVQAGGSLRLSCAASGRIFAYYAMGWYRQAPGKERELVAAINWSGDGTIYADSVKWRFTISRDNAKNTVYLQMNSLKPQDTAVYYCNADWTSYGFGTRLDYWGQGNQVTVSS", "polyreactivity (PSR sort gate)": "low polyreactivity"}, {"sequence": "QVQLVESGGGLVQAGGSLRLSCAASGRIFAYYAMGWYRQAPGKERELVAAISGGGGSTYYADSVKGRFTISRDNAKNTVYLQMNSLKPEDTAVYYCAARYTVYSATGRYYYWGQGTQVTVSS", "polyreactivity (PSR sort gate)": "high polyreactivity"}]}]}
